This passage reports stoichiometry N results from article doi:10.1101/2025.10.13.682103.

Experiment [1] addresses Mycoplasma penetrans methionyl-tRNA synthetase, full length, M568A (Mycoplasma penetrans). Briefly: cryo-EM structure.
Experiment [2] has the same target. Briefly: PAGE analysis.
Experiment [3] shares this target. Briefly: cryo-EM structure. The source holds these as a separate data set.

What is called stoichiometry N is the number of molecules, sites or subunits per partner or assembly.

“And” between values parts separate entries of the source, which are not always exact repeats. Equal values may be shown once.

With “Mycoplasma penetrans methionyl-tRNA synthetase, full length, M568A (enzyme)”, the stoichiometry N in experiment [1] was 4 and 6; in experiment [2], 2; in experiment [3], 2.
